Test results: patent US20160146829A1

Tests used:
Redbeads [1] = assay: flow cytometry of red fluoromagnetic beads specific for alemtuzumab in spiked PBS with 3% BSA; the text words the ug/ml values as concentrations of the beads
Redbeads [2] = assay: flow cytometry of red fluoromagnetic beads specific for alemtuzumab in PBS with 3% BSA, sample at 0 ug/ml (background of the series)

Substance: alemtuzumab (antibody)
- Mean, FL1-H (sample at 0.1 ug/ml) (Redbeads [1]): 5.69
- Mean, FL1-H (sample at 0.5 ug/ml) (Redbeads [1]): 49.1
- Mean, FL1-H (sample at 1.0 ug/ml) (Redbeads [1]): 94.4
- Mean, FL1-H (sample at 10 ug/ml) (Redbeads [1]): 493
- Median, FL1-H (sample at 0.1 ug/ml) (Redbeads [1]): 5.26
- Median, FL1-H (sample at 0.5 ug/ml) (Redbeads [1]): 36.2
- Median, FL1-H (sample at 1.0 ug/ml) (Redbeads [1]): 74.3
- Median, FL1-H (sample at 10 ug/ml) (Redbeads [1]): 483
- Mean, FL1-H (blank sample at 0.0 ug/ml) (Redbeads [2]): 2.11
- Median, FL1-H (blank sample at 0.0 ug/ml) (Redbeads [2]): 1.68
